Paper PMC4186839, “Streptomyces coelicolor SCO4226 Is a Nickel Binding Protein” (PLoS ONE, 2014)

Molecular target: the molecule itself
Test: crystal structure; Se-Met labelled apo-SCO4226 crystals (1.30 Å) and the same crystals soaked about 1 hr in 0.8 M sodium citrate pH 6.5 with 0.8 M NiSO4 (Ni-SCO4226, 2.04 Å); space group P21; one dimer in each asymmetric unit

B1: SCO4226 (natural protein, Streptomyces coelicolor A3(2), UniProt Q9FCE4 1-82, looked up)
chain: MAHFMDVHRGMHGITSDQLHQAHQADLAVEKDENVHFEQAWADPASGTIYCLSEGPSAEAVQRVHERAGHKADEIHEVPLSA
modifications: seleno-methionine in place of methionine (Se-Met substituted protein)
notes: SCO4226, 82-residue hypothetical protein encoded by the open reading frame SCO4226 of Streptomyces coelicolor A3(2); residues up to Ala82 (C-terminal carboxylate) are seen in the structure; No tag is named here; also called apo-SCO4226; Se-apo-SCO4226; source: E. coli B834 (DE3), Se-Met labelled, purified (nickel-chelating Sepharose, Superdex 75 gel filtration)
- stoichiometry N: 2
